B1: STK38L (parent)
chain: RQLAYSTVGTPDYIAPEVFMQTGY
B2: FCHO1 (parent)
chain: HLELTRKLQDLIKDVLRYGEEQLK
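Further: lentivirally expressed fusions sorted by FACS into six bins by GFP to DsRed ratio, PSI derived from sequencing read proportions per bin multiplied by bin number.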

Variants of B1 are the subject of one data set. Description: protein stability index of a GFP-peptide fusion (GPS, HEK-293T) (PSI 1-6); higher = more stable. Particulars: c terminus: a fixed tail appended.
RQLGYSTVGTPDYIAPEVFMQTGY: the protein stability index was found to be 2.86. Still for that read-out and setting: in the case of RQLACSTVGTPDYIAPEVFMQTGY it was 2.38; in that of RQLAFSTVGTPDYIAPEVFMQTGY, 2.44; in that of RQLAESTVGTPDYIAPEVFMQTGY, 3.13. On the same count and under the same terms, in the case of RQLAPSTVGTPDYIAPEVFMQTGY it was 3.42; in that of RQLAHSTVGTPDYIAPEVFMQTGY, 3.07; in that of RQLADSTVGTPDYIAPEVFMQTGY, 3.59. The same measure, in the same setting: in the case of RQLAVSTVGTPDYIAPEVFMQTGY it was 2.36; in that of RQLATSTVGTPDYIAPEVFMQTGY, 2.51; in that of RQLAQSTVGTPDYIAPEVFMQTGY, 3.43.

RQLAKSTVGTPDYIAPEVFMQTGY: the protein stability index came to 2.58. Same read-out and setting: in the case of RQLAMSTVGTPDYIAPEVFMQTGY it was 2.95.

In the case of RQLAGSTVGTPDYIAPEVFMQTGY, the protein stability index amounted to 3.03. The same measure, in the same setting: in the case of RQLAISTVGTPDYIAPEVFMQTGY it was 2.83; in that of RQLAASTVGTPDYIAPEVFMQTGY, 3.06. Still for that read-out and setting: in the case of RQLARSTVGTPDYIAPEVFMQTGY it was 2.81; in that of RQLALSTVGTPDYIAPEVFMQTGY, 2.84; in that of RQLAWSTVGTPDYIAPEVFMQTGY, 2.13. Same read-out and setting: in the case of RQLANSTVGTPDYIAPEVFMQTGY it was 3.26; in that of RQLASSTVGTPDYIAPEVFMQTGY, 2.93; in that of RQLAYSTIGTPDYIAPEVFMQTGY, 2.58.

Consider RQLAYSTNGTPDYIAPEVFMQTGY, for which the protein stability index came to 2.41. The same measure, in the same setting: in the case of RQLAYSTHGTPDYIAPEVFMQTGY it was 2.92; in that of RQLAYSTEGTPDYIAPEVFMQTGY, 3.29.

For RQLAYSTDGTPDYIAPEVFMQTGY, the protein stability index was 3.27. Same read-out and setting: in the case of RQLAYSTPGTPDYIAPEVFMQTGY it was 2.51; in that of RQLAYSTLGTPDYIAPEVFMQTGY, 2.37; in that of RQLAYSTGGTPDYIAPEVFMQTGY, 2.76.

With RQLAYSTKGTPDYIAPEVFMQTGY, the protein stability index was determined as 2.98.

Regarding RQLAYSTMGTPDYIAPEVFMQTGY, the protein stability index was 2.87. On the same count and under the same terms, in the case of RQLAYSTAGTPDYIAPEVFMQTGY it was 2.59. On the same count and under the same terms, in the case of RQLAYSTCGTPDYIAPEVFMQTGY it was 1.49. On the same count and under the same terms, in the case of RQLAYSTFGTPDYIAPEVFMQTGY it was 2.18; in that of RQSAYSTVGTPDYIAPEVFMQTGY, 2.65; in that of RQDAYSTVGTPDYIAPEVFMQTGY, 3.37.

For the variant RQYAYSTVGTPDYIAPEVFMQTGY, the protein stability index was determined as 2.41. With RQCAYSTVGTPDYIAPEVFMQTGY, the protein stability index stood at 2.06. On the same count and under the same terms, in the case of RQVAYSTVGTPDYIAPEVFMQTGY it was 2.73; in that of RQQAYSTVGTPDYIAPEVFMQTGY, 2.61; in that of RQKAYSTVGTPDYIAPEVFMQTGY, 2.68.

Take RQEAYSTVGTPDYIAPEVFMQTGY: the protein stability index was found to be 3.15. Same read-out and setting: in the case of RQRAYSTVGTPDYIAPEVFMQTGY it was 3.09; in that of RQPAYSTVGTPDYIAPEVFMQTGY, 2.44; in that of RQTAYSTVGTPDYIAPEVFMQTGY, 2.84.

As to RQHAYSTVGTPDYIAPEVFMQTGY, the protein stability index turned out to be 2.43.

RQMAYSTVGTPDYIAPEVFMQTGY: the protein stability index was found to be 2.72. Still for that read-out and setting: in the case of RQWAYSTVGTPDYIAPEVFMQTGY it was 1.53; in that of RQAAYSTVGTPDYIAPEVFMQTGY, 2.55. Still for that read-out and setting: in the case of RQFAYSTVGTPDYIAPEVFMQTGY it was 2.33; in that of RQIAYSTVGTPDYIAPEVFMQTGY, 2.24. Still for that read-out and setting: in the case of RQNAYSTVGTPDYIAPEVFMQTGY it was 2.56; in that of RQGAYSTVGTPDYIAPEVFMQTGY, 2.74.

The variants in a further data set derive from B2. The description is as above. The following applies: c terminus: a fixed tail appended.
Consider HLELTRKLQDLIKDVLRYGEEQLT, for which the protein stability index was 1.6. Consider HLELTRKLQDLIKDVLRYGEEQLA, for which the protein stability index turned out to be 1.59. For the variant HLELTRKLQDLIKDVLRYGEEQLC, the protein stability index amounted to 1.63.

Regarding HLELTRKLQDLIKDVLRYGEEQLI, the protein stability index was found to be 2.67. Still for that read-out and setting: in the case of HLELTRKLQDLIKDVLRYGEEQLL it was 2.8; in that of HLELTRKLQDLIKDVLRYGEEQLP, 2.02; in that of HLELTRKLQDLIKDVLRYGEEQLG, 1.01.

For the variant HLELTRKLQDLIKDVLRYGEEQLD, the protein stability index is 1.84. HLELTRKLQDLIKDVLRYGEEQLV: the protein stability index came to 4.54. The same measure, in the same setting: in the case of HLELTRKLQDLIKDVLRYGEEQLF it was 2.05; in that of HLELTRKLQDLIKDVLRYGEEQLQ, 2.48. The same measure, in the same setting: in the case of HLELTRKLQDLIKDVLRYGEEQLY it was 2.8; in that of HLELTRKLQDLIKDVLRYGEEQLM, 2.79.

HLELTRKLQDLIKDVLRYGEEQLN: the protein stability index was found to be 3.69. The same measure, in the same setting: in the case of HLELTRKLQDLIKDVLRYGEEQLH it was 3.16; in that of HLELTRKLQDLIKDVLRYGEEQLS, 2.66; in that of HLELTRKLQDLIKDVLRYGEEQLE, 1.44.

For HLELTRKLQDLIKDVLRYGEEQEK, the protein stability index was 2.24.

As to HLELTRKLQDLIKDVLRYGEEQKK, the protein stability index was 2.

For HLELTRKLQDLIKDVLRYGEEQIK, the protein stability index is 3.49. On the same count and under the same terms, in the case of HLELTRKLQDLIKDVLRYGEEQSK it was 2.31. Same read-out and setting: in the case of HLELTRKLQDLIKDVLRYGEEQRK it was 2.44; in that of HLELTRKLQDLIKDVLRYGEEQNK, 2.61; in that of HLELTRKLQDLIKDVLRYGEEQTK, 3.42. On the same count and under the same terms, in the case of HLELTRKLQDLIKDVLRYGEEQFK it was 3.59; in that of HLELTRKLQDLIKDVLRYGEEQDK, 2.53.

Consider HLELTRKLQDLIKDVLRYGEEQGK, for which the protein stability index amounted to 2.57. Turning to HLELTRKLQDLIKDVLRYGEEQQK, the protein stability index stood at 2.06. Still for that read-out and setting: in the case of HLELTRKLQDLIKDVLRYGEEQHK it was 2.15; in that of HLELTRKLQDLIKDVLRYGEEQAK, 2.36. The same measure, in the same setting: in the case of HLELTRKLQDLIKDVLRYGEEQCK it was 1.09. Still for that read-out and setting: in the case of HLELTRKLQDLIKDVLRYGEEQYK it was 2.29. In the case of HLELTRKLQDLIKDVLRYGEEQPK, the protein stability index was 1.73. Still for that read-out and setting: in the case of HLELTRKLQDLIKDVLRYGEESLK it was 1.84; in that of HLELTRKLQDLIKDVLRYGEEILK, 2.21; in that of HLELTRKLQDLIKDVLRYGEEYLK, 3.18. Still for that read-out and setting: in the case of HLELTRKLQDLIKDVLRYGEEHLK it was 2.41. For the variant HLELTRKLQDLIKDVLRYGEEPLK, the protein stability index came to 1.79.

On to HLELTRKLQDLIKDVLRYGEELLK, for which the protein stability index came out at 2.14.

Take HLELTRKLQDLIKDVLRYGEERLK: the protein stability index was 3.19.

Turning to HLELTRKLQDLIKDVLRYGEEMLK, the protein stability index was determined as 1.91. The same measure, in the same setting: in the case of HLELTRKLQDLIKDVLRYGEEVLK it was 2.32.

The values are drawn from the supplement of paper PMC10567573.
